Experiment [1] addresses mouse CXCR5 (mouse) (UniProt Q04683). As to the kind of experiment: FACS on cells expressing the CXCR5 construct.
Experiment [2] addresses human CXCR5 (human) (UniProt P32302). As to the kind of experiment: FACS on cells expressing the CXCR5 construct.
The target is the same in experiment [3]. As to the kind of experiment: cell-based or functional assay.

Sequence of human CXCR5 (human) (P32302 whole entry): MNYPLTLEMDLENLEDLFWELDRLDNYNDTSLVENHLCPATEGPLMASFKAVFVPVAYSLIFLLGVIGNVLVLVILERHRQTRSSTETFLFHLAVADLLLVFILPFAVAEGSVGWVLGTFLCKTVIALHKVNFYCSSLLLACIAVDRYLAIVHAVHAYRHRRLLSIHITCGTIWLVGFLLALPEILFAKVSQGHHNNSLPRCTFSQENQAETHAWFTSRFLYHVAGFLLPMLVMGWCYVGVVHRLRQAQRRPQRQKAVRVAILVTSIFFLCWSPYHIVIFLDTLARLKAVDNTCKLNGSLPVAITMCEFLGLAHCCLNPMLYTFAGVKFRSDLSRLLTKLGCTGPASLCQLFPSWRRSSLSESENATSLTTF
Sequence of mouse CXCR5 (mouse) (Q04683 whole entry): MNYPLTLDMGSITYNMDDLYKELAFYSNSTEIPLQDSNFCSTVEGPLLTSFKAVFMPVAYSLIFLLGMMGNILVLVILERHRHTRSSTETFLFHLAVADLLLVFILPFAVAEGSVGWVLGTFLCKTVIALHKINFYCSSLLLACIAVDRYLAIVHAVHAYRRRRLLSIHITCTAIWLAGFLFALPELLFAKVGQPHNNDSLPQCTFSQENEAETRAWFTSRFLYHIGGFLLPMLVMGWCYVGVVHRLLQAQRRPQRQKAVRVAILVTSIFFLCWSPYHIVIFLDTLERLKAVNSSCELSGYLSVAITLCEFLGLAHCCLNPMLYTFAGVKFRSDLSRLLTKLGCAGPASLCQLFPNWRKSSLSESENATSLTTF

Regarding “rabbit anti-human CXCR5 (catalog ab46218, Abcam) (antibody)”, the GMFI in experiment [1] came out at 1040 GMFI; in experiment [2], 18600 GMFI. On to “rat anti-mouse CXCR5 (catalog MAB6198, R&D systems) (antibody)”, for which the results for the GMFI in experiment [1] and in experiment [2] were 12500 GMFI and 2460 GMFI, respectively. In experiment [3], “recombinant hCXCL13 (from UniProt O43927 23-109) (ligand)” came in with an IC80, inhibition of forskolin-triggered cAMP production of 0.6 nM.
